The record followed here is patent publication US20240252635A1 (Genmab, published 2024).

Test [1] addresses T1, cynomolgus monkey CD37 (cynomolgus monkey (Macaca fascicularis), UniProt P11049 1-281 (human entry)).
T1 construct: also called mfCD37; cynomolgus CD37
T1 chain: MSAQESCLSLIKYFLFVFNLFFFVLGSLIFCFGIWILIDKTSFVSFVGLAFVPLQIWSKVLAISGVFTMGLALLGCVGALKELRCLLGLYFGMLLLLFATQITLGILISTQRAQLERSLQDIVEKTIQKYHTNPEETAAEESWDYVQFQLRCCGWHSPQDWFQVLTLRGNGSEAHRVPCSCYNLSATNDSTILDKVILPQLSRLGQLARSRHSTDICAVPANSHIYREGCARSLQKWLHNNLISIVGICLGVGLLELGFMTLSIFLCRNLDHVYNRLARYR
The test can be described thus: flow cytometry, Alexa-488 labeled antibody on B cells in cynomolgus monkey whole blood; average of 4 animals. As to the method:
(§1) Binding to human or cynomolgus monkey B cells was determined in a whole blood binding assay. Heparin-treated human blood from healthy volunteers was derived from UMC Utrecht (Utrecht, The Netherlands), hirudin-treated blood from cynomolgus monkeys was derived from Covance (Münster, Germany). Blood was aliquoted to wells of a 96-well round-bottom plate (Greiner Bio-one, cat. no. 65010; 35 μL/well). Red blood cells (RBC) were lysed by addition of 100 μL RBC lysis buffer (10 mM KHCO₃ [Sigma P9144], 0.1 mM EDTA [Fluka 03620] and […] NH₄CL [Sigma A5666]) and incubated on ice until RBC lysis was complete.
(§2) Cells were pelleted and washed twice in 150 μL FACS buffer and resuspended in 150 μL TO-PRO-3 (end concentration 0.2 μM; Molecular Probes, cat no. T3605). Samples were measured by flow cytometry using an LSRFortessa flow cytometer. Binding is expressed as geometric mean of A488 fluorescence intensity for viable TO-PRO-3⁻/CD14⁻/CD19⁺ B-cells (human) or viable TO-PRO-3⁻/CD14⁻/CD19⁺/CD20⁺ B-cells (cynomolgus monkey). Log-transformed data were analyzed using best-fit values of a non-linear dose-response fit in GraphPad PRISM.
For orientation: In flow cytometry, cells or beads pass a laser one at a time.

Test [2] has as its target T2, human CD37 (human (Homo sapiens), UniProt P11049 1-281).
T2 construct: Endogenous on Daudi cells, Raji cells and human blood B cells; also called Leukocyte Antigen CD37; GP52-40
T2 sequence: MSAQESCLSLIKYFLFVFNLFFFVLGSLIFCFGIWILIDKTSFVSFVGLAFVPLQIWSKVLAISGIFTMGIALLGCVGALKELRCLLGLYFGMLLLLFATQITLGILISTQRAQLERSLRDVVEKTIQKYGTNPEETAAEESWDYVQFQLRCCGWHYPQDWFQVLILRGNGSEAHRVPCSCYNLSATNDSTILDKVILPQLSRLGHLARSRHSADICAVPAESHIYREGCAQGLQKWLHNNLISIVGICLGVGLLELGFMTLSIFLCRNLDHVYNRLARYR
The test can be described thus: flow cytometry, Alexa-488 labeled antibody on B cells in human whole blood; average of 6 donors. As to the method:
as §1, §2

Test [3] has as its target T2, human CD37. The test can be described thus: flow cytometry on HEK293 cells expressing wild type CD37 or alanine mutants, Alexa488 antibody at 3 µg/mL. The method, then:
The wild type CD37 and alanine mutants were expressed individually in FreeStyle HEK293 cells according to the manufacturer's instructions (Thermo Scientific). One day post transfection the cells were harvested. […] Cells were incubated for 1 hour at room temperature. Subsequently, cells were washed twice by adding 150 μL FACS buffer and removing the supernatant after centrifugation. Cells were resuspended in 20 μL fresh FACS buffer and stored at 4° C. until analysis by flow cytometry using an iQue screener (IntelliCyt). The entire experiment was performed 2 times.

B1: bsIgG1-016-H5L2-LC90S-F405L-E430Gx010-H5L2-K409R-E430G (bispecific antibody)
heavy 1: not shown
light 1: DVVMTQSPSTLSASVGDRVTITCQASQNIDSNLAWYQQKPGKAPKFLIYYASNLPFGVPSRFKGSGSGTEFTLTISSLQPDDFATYYCQSADVGSTYVAAFGGGTKVEIKRTVAAPSVFIFPPSDEQLKSGTASVVCLLNNFYPREAKVQWKVDNALQSGNSQESVTEQDSKDSTYSLSSTLTLSKADYEKHKVYACEVTHQGLSSPVTKSFNRGEC
heavy 2: not shown
light 2: AYDMTQSPSTLSASVGDRVTITCQASQNIIDYLAWYQQKPGKAPKLLIHKASTLASGVPSRFKGSGSGTEFTLTISSLQPDDFATYYCQQGYSNSNIDNTFGGGTKVEIKRTVAAPSVFIFPPSDEQLKSGTASVVCLLNNFYPREAKVQWKVDNALQSGNSQESVTEQDSKDSTYSLSSTLTLSKADYEKHKVYACEVTHQGLSSPVTKSFNRGEC
notes: also called bispecific CD37 antibody
B1: the EC50 (commonly the concentration needed to bring the measured effect to its halfway point) is 0.63 µg/mL in test [1] and 0.85 µg/mL in test [2].

B2: bsIgG1-016-H5L2-LC90S-F405L-E430Gxb12-K409R-E430G (bispecific antibody)
heavy 1: not shown
light 1: DVVMTQSPSTLSASVGDRVTITCQASQNIDSNLAWYQQKPGKAPKFLIYYASNLPFGVPSRFKGSGSGTEFTLTISSLQPDDFATYYCQSADVGSTYVAAFGGGTKVEIKRTVAAPSVFIFPPSDEQLKSGTASVVCLLNNFYPREAKVQWKVDNALQSGNSQESVTEQDSKDSTYSLSSTLTLSKADYEKHKVYACEVTHQGLSSPVTKSFNRGEC
heavy 2: not shown
light 2: EIVLTQSPGTLSLSPGERATFSCRSSHSIRSRRVAWYQHKPGQAPRLVIHGVSNRASGISDRFSGSGSGTDFTLTITRVEPEDFALYYCQVYGASSYTFGQGTKLERKRTVAAPSVFIFPPSDEQLKSGTASVVCLLNNFYPREAKVQWKVDNALQSGNSQESVTEQDSKDSTYSLSSTLTLSKADYEKHKVYACEVTHQGLSSPVTKSFNRGEC
notes: also called antibody 016
With B2, in test [3], the binding result was “binds”.
